Assay results published in paper PMC6248932.

Tests used:
[1] = target: BG505 SOSIP.664 gp140 trimer (HIV-1 (clade A, strain BG505)) (UniProt Q2N0S6); assay: native gel or EMSA
[2] = target: BG505 SOSIP.664 gp140 trimer (HIV-1 (clade A, strain BG505)) (UniProt Q2N0S6); assay: SEC
[3] = target: BG505 UFO gp140 trimer (HIV-1 (clade A, strain BG505)); assay: native gel or EMSA
[4] = target: BG505 UFO gp140 trimer (HIV-1 (clade A, strain BG505)); assay: SEC
[5] = target: clade B tier 3 H078.14 UFO-BG gp140 trimer (HIV-1 (clade B, strain H078.14) | HIV-1 (clade A, strain BG505)); assay: crystal structure

Q: With “BG505 SOSIP.664 gp140 trimer (from UniProt Q2N0S6 31-505) (complex)” as the substance, how does the stoichiometry N [1] read?
A: The stoichiometry N was 3.

Q: And the stoichiometry N [2]?
A: Its stoichiometry N is 3.

Q: BG505 UFO gp140 trimer was tested. Which stoichiometry N [3] did it give?
A: Its stoichiometry N is 3.

Q: What about the stoichiometry N [4] of the same substance?
A: Its stoichiometry N is 3.

Q: Which stoichiometry N [5] does the source give for “clade B tier 3 H078.14 UFO-BG gp140 trimer” here?
A: Its stoichiometry N is 3.
